Experimental data: patent US20250243278A1 (SHANGHAI HENLIUS BIOTECH, published 2025)

Columns and labels:
[1] = molecular target: T1, human B7H3 on A498 cells (human, UniProt Q5ZPR3 29-534); assay: flow cytometry, whole cell binding to B7H3+ A498 cells, MFI (FITC)
T1 construct: Endogenous B7H3 of A498 human kidney carcinoma cells; also called B7H3 positive A498 cells; human B7H3+ A498 cells
T1 sequence: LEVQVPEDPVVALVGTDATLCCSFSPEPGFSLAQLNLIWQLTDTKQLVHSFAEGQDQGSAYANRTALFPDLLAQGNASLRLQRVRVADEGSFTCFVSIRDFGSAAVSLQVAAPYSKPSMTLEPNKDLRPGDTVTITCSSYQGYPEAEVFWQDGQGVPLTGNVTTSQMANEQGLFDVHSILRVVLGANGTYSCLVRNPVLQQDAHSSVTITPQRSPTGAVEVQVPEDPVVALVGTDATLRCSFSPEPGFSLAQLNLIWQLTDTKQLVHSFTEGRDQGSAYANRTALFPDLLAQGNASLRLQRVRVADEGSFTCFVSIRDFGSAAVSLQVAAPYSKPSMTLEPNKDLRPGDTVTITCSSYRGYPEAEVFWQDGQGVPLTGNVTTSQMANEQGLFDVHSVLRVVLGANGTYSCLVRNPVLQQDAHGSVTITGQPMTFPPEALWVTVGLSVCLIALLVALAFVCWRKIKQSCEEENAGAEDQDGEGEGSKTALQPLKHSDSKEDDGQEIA

[2] = molecular target: T1, human B7H3 on A498 cells; assay: flow cytometry, whole cell binding to B7H3+ A498 cells, MFI; fit value printed for the flat curve of the negative control
[3] = molecular target: T2, recombinant human B7H3 extra cellular domain (ECD) protein (human, UniProt Q5ZPR3 29-461); assay: ELISA on human B7H3 (h-B7H3 ECD coated plates), OD450
T2 construct: also called h-B7H3 ECD; h-B7H3; not shown: C-terminal poly-histidine tag or Fc tag
T2 sequence: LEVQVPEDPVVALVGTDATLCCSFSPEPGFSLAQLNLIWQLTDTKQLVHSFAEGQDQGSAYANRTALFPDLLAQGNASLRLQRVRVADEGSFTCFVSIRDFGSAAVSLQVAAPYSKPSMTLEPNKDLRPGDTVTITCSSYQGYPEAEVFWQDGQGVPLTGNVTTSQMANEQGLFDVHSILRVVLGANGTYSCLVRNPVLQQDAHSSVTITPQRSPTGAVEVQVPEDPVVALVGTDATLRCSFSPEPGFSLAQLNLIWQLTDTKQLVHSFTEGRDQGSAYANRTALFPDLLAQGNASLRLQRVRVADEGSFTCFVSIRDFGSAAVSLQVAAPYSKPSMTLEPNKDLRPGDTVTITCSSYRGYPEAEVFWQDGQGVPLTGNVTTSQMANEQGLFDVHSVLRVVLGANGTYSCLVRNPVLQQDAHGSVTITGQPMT

[4] = molecular target: T1, human B7H3 on A498 cells; assay: flow cytometry, whole cell binding to B7H3+ A498 cells, MFI
[5] = molecular target: T1, human B7H3 on A498 cells; assay: flow cytometry, whole cell binding to B7H3+ A498 cells, MFI (FITC); remark: listed apart in the source
[6] = molecular target: cynomolgus B7H3 (cynomolgus); assay: ELISA on cynomolgus B7H3, OD450

B1: Reference Ab 2 (an h1702 analog) (antibody, V domains shown)
VH: QVQLQQPGAELVKPGASVKLSCKASGYTFTSYWMHWVKQRPGQGLEWIGMIHPDSGTTNYNEKFRSKATLTVDKSSSTAYMQLSSLTSEDSAVYYCAVYYGSTYWYFDVWGTGTTVTVSS
VL: DVVMTQTPLSLPVSLGDQAYISCRSSQSLVHINGNTYLHWYRQKPGQSPKLLIYKVSNRFSGVPDRFSGSGSGTDFTLKISRVEAEDLGVYFCSQSTHFPFTFGSGTKLEIK
B1 was tested, and the EC50 [1] was 0.85 nM.

B2: Reference Ab 4 (antibody, V domains shown)
VH: QVQLQQPGAELVKPGASVKLSCKASGYSFTSYWMHWVKQRPGQGLEWIGMIHPNSGSNNYNEKFKSKATLTVDKSSNTAYMQLSSLTSEDSAVYYCARRLGLHFDYWGQGTTLTVSS
VL: DIVMTQSQKFMSTPVGDRVSITCKASQNVGTAVAWYQQKPGQSPKLLIYSASNRYTGVPDRFTGSGSGTDFTLTISNMQSEDLADYFCQQYSSYPYTFGGGTKLEIK
In the case of B2, the EC50 [2] is reported as 40.3 nM.

B3: 5H8 VHH (VHH)
VHH: QVKLEESGGGQVQAGDSRTLSCVASGRTFSSDSMAWFREAPGKARGFVAVVSRSAGSTWYEDSVKGRFTISRDNAKNTVYLQMNSLKPEDTAVYYCAATDIATMPWLMVSSRYDYWGQGTQVTVSS
notes: VHH secreted into SS320 supernatant from phagemid pADL-23c, as screened by ELISA
With B3 the “EC50 (read off the curve)” value [3] was about 0.08 mg/L.

B4: 19c10-V2 (Fc fusion)
chain: EVQLVESGGGLVQPGGSLRLSCAASGSTFSKYAMGWFRQAPRKARGFVGAVTSAGSTWYADSVKGRFTISRDNSKNTLYLQMNSLRAEDTAVYYCAATTIATMPWLMVSSRYAYWGQGTLVTVSS
notes: Humanized FR1, FR3 and FR4; also called humanized 19c10 clone; not shown: purified by protein A and detected with anti-human IgG, so probably a human Fc
B4 was tested, and the EC50 [4] was 0.537 nM.

B5: 19c10-V3 (Fc fusion, not shown: a dimerising Fc or GST)
chain: EVQLVESGGGLVQPGGSLRLSCAASGSTFSKYAMGWFRQAPGKARGFVGAVTSAGSTWYADSVKGRFTISRDNSKNTLYLQMNSLRAEDTAVYYCAATTIATMPWLMVSSRYAYWGQGTLVTVSS
notes: FR2 humanized further from 19c10-V2; detected with anti-human IgG; also called humanized 19c10 clone
For B5, the EC50 [5] was 5.52 nM and the EC50 [4] was 1.69 nM.

B6: 14C4 VHH (VHH)
VHH: QVQLVESGGGVVQAGGSLRLSCAASGRTFSSYGMGWFRQAPRKARGFVGAVTSAGSTWYEDSVKGRFTISRDNAKNTVYLQMNSLKPEDTAVYYCAATTIATMPWLMVSSRYAYWGQGTQVTVSS
notes: VHH secreted into SS320 supernatant, as screened by ELISA
In the case of B6, the “EC50 (read off the curve)” value [6] is reported as about 0.06 mg/L.
